T1: human MCP-2 (human, UniProt P80075 24-99)
T1 construct: also called hMCP-2; huMCP-2
T1 sequence (looked up): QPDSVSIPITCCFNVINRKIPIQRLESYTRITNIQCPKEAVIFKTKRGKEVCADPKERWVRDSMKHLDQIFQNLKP

T2: human fractalkine (human, UniProt P78423 25-100, limits assumed)
T2 sequence (looked up): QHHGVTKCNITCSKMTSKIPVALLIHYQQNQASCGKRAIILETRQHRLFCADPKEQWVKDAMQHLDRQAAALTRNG

T3: human DC-CK (human, UniProt P55774 21-89)
T3 sequence (looked up): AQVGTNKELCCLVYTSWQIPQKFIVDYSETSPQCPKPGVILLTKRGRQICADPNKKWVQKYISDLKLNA


Assays:
human MCP-2 [1] = biological target: T1, human MCP-2; assay: ELISA on immobilised MCP-2, absorbance 450 nm
murine MCP-1 (JE) = biological target: T4, murine MCP-1 (JE) (mouse, UniProt P10148 24-148); assay: ELISA on plate-coated murine MCP-1, anti-human IgG-HRP; y axis unlabelled, OD 405 nm per paragraph 382
T4 construct: also called mMCP-1 (JE); muMCP-1
Experimental: (§1) Binding specificities of chimeric 11K2 and the four versions of humanized 11K2 (H1-L1, H1-L2, H2-L1, and H2-L2) were determined by ELISA, according to the protocol described in Example 1.
(§2) ELISA plates (Corning, Inc. Cat#3369) were coated with 50 ng MCP-1 per well overnight at 4° C. Plates were washed then blocked with PBS/5% milk for 1.5 hrs at 25° C. Another wash was followed by incubation with the 11K2 mAbs (or 3G9 isotype control) at the concentrations indicated for 1 hr at 25° C. After washing, the plates were incubated with secondary antibody (anti-human IgG-HRP, Jackson Immunoresearch Cat#109-036-088) for 1 hr at 25° C. Plates were then washed and developed using the ABTS Peroxidase Substrate Kit (Vector Laboratories Cat#SK-4500). OD (405 nm) values were plotted as a function of 11K2 mAb concentration.

human MCP-1 [2] = biological target: T5, human MCP-1 (human, UniProt P13500 24-99); assay: ELISA on plate-coated human MCP-1, anti-human IgG-HRP; y axis unlabelled, OD 405 nm per paragraph 382
T5 construct: also called hMCP-1; huMCP-1
Experimental: as §1, §2

human MCP-3 = biological target: T6, human MCP-3 (human, UniProt P80098 24-99); assay: ELISA
T6 construct: also called hMCP-3

human MCP-1 [3] = biological target: T5, human MCP-1; assay: KinExA, in solution
Experimental: (§3) Polymethylmethacrylate beads activated with NHS were coated with 10 μg recombinant human MCP-1 in 1 ml buffer. The beads were packed into a column in the KinExA instrument for each sample. This packed bead column is able to capture free MCP mAb or Fab flowed through the column. The amount of free mAb or Fab in solution was determined using a secondary goat anti-mouse heavy and light chain IgG-Cy5 conjugate.
(§4) A fixed amount of 11K2 mAb, 1A1 mAb, 11K2 Fab, or 1A1 Fab was incubated with various amounts of human MCP-1, MCP-2 or MCP-3 for three hours. The amount of uncomplexed free antibody remaining in solution was determined by flowing these mixtures over the MCP-1-loaded bead column and labeling with the Cy5 secondary antibody. The fluorescent signal was plotted against the MCP concentration and the affinity was determined using a quadratic curve fit

human MCP-2 [4] = biological target: T1, human MCP-2; assay: KinExA, in solution
Experimental: as §3, §4

human eotaxin = biological target: T7, human eotaxin (human, UniProt P51671 24-97); assay: ELISA, purified mAb
T7 construct: also called hEotaxin
Experimental: (§5) ELISA specificity assays were performed using purified monoclonal antibodies to confirm the binding specificities of the supernatant MCP-specific monoclonal antibodies described above. Antibodies were purified by Protein A affinity column chromatography, according to standard methods known in the art.
(§6) ELISA was performed as previously described in Example 1. Briefly, MaxiSorp 384 well plates were coated with 15-20 μl antigen in PBS. Recombinant purified human antigens included: MCP-1, MCP-2, MCP-3, MCP-4, IL-8, eotaxin, murine MCP-1 (JE), murine MCP-3, murine MCP-5, and rat MCP-1. All antigens, including MCP-3, were immobilized. Plates were washed and purified monoclonal antibody (10 μg/ml) was added to each well and incubated for 1 hour at room temperature. Plates were washed and wells were incubated with 20 μl/well of a 1:25,000 dilution of goat anti-mouse IgG peroxidase conjugate (Jackson Catalog Number 515-036-003). Plates were incubated for 1 hour at room temperature, washed, and 20 μl/well of substrate (, tetramethylbenzidine, Jackson, Catalog Number 515-036-062) was added. Reaction was allowed to proceed and stopped by addition of 20 μl/well of 2M H₂SO₄. Antibodies 1A1 bound specifically to hMCP-1, hMCP-2, hMCP-3, and mMCP-1. Antibodies 11K2, 4N4, 5A13, 6D21, 615, and 7H1 bound specifically to hMCP-1, hMCP-2, hMCP-3, mMCP-1, mMCP-3, and mMCP-5.

human MCP-4 = biological target: T8, human MCP-4 (human, UniProt Q99616 24-98, limits assumed); assay: ELISA, purified mAb
T8 construct: also called hMCP-4
Experimental: as §5, §6

human IL-8 = biological target: T9, human IL-8 (human, UniProt P10145 28-99, limits assumed); assay: ELISA, purified mAb
T9 construct: also called hIL8
Experimental: as §5, §6

human fractalkine = biological target: T2, human fractalkine; assay: ELISA, supernatant
Experimental: (§7) MaxiSorp 384 well plates were coated with 15-20 μl antigen in PBS. Recombinant purified human antigens included: MCP-1, MCP-2, MCP-3, MCP-4, IL-8, eotaxin, fractalkine, Gcp-2, DC-CK (Gcp-2 and DC-CK are also chemokines). Plates were incubated with antigen for 2 hours at 37° C. or overnight at 4° C. Non-specific sites were blocked with 80 μl/well of 1% BSA/PBS for 1 hour at room temperature. Plates were washed and 15 μl of hybridoma supernatant was added to each well and incubated for 1 hour at room temperature. Plates were washed and wells were incubated with 20 μl/well of a 1:25 000 dilution of goat anti-mouse IgG peroxidase conjugate (Jackson Catalog Number 515-036-003). Plates were incubated for 1 hour at room temperature, washed, and 20 μl/well of substrate (TMB, tetramethylbenzidine, Jackson, Catalog Number 515-036-062) was added. Reaction was allowed to proceed and stopped by addition of 20 μl/well of 2M H₂SO₄. Reactive clones were picked for further analysis. Isotyping of hybridoma supernatants was performed by antigen-dependent ELISA. Briefly, wells were coated with 50 μl of human MCP-1 (5 μg/ml) for 1 hour at 37° C. Wells were washed 4 times and blocked with PBS/1% BSA. Isotyping of hybridoma supernatants was then performed using a mouse immunoglobulin screening/isotyping kit (Zymed Laboratories, San Francisco, —CA) as recommended by the manufacturer.

human Gcp-2 = human Gcp-2 (human, UniProt P80162 38-114, limits assumed); assay: ELISA, supernatant
Experimental: as §7

human DC-CK = biological target: T3, human DC-CK; assay: ELISA, supernatant
Experimental: as §7

human MCP-2 [5] = biological target: T1, human MCP-2; assay: KinExA, in solution; intact bivalent mAb, not Fab
Experimental: as §3, §4

human MCP-1 [6] = biological target: T5, human MCP-1; assay: KinExA, in solution, Fab
Experimental: (§8) 1 ml of MCP-1 at a concentration of 10 μg/ml in NaHCO₃ was added to an amount of beads equivalent to 1 ml of the original slurry. The beads were rocked overnight at 4° C. Beads were spun down and washed once with 1M Tris, pH 8.0, then resuspended in 1M Tris pH 8.0 with 1% BSA, 0.02% azide. The beads were rocked at room temperature for one hour then stored at 4° C. in this buffer for the duration of the experiments.
(§9) The KinExA 3000 measures protein-protein interaction in solution, and is ideally suited for measuring affinities of antibodies to antigens. In the typical experiment, antigen (MCP) is immobilized on a bead, antibody is flowed over a column of these beads at a given concentration, and the antibody that binds to the beads is detected using a fluorescent secondary. Antibody at a fixed concentration is then incubated with different concentrations of antigen in solution and the amount of free antibody is measured by flowing the mixture over the bead column quickly enough that no re-equilibration occurs between solution and solid phase. The amount of antibody remaining free is plotted against the concentration of antigen added and the data are fit to a quadratic equation to determine the affinity of the interaction in solution.
(§10) In these experiments, the only difference to the typical experiment described above is that instead of using intact antibody, a Fab fragment of 11K2 was used. Earlier KimExA experiments using the intact murine 11K2 mAb binding to MCP-1 and MCP-2 gave biphasic curves that the software could not interpret. This may be due to these proteins acting as dimers, so to eliminate the dimer/dimer interaction we generated Fab fragments. The binding of the 11K2 Fab fragments to MCP-1 and MCP-2 produced curves that the KinExA software could fit.

human MCP-2 [7] = biological target: T1, human MCP-2; assay: KinExA, in solution, Fab
Experimental: as §8, §9, §10

human MCP-2 [8] = biological target: T1, human MCP-2; assay: KinExA, in solution; Fab, not intact mAb

| Binder | EC50 (read off the curve) (human MCP-2 [1]) | binding result (murine MCP-1 (JE)) | EC50 (read off the curve) (human MCP-1 [2]) | binding result (human MCP-3) | Kd (human MCP-1 [3]) | binding result (human eotaxin) | binding result (human MCP-4) | binding result (human IL-8) | binding result (human fractalkine) | binding result (human Gcp-2) | binding result (human DC-CK) | other results |
| --- | --- | --- | --- | --- | --- | --- | --- | --- | --- | --- | --- | --- |
| humanized 11K2 H1-L1 (antibody, human IgG1, kappa, V domains shown, human IgG1 kappa; also called hu11K2) VH: QVQLVQSGAEVKKPGSSVKVSCKASGLNIKDTYMHWVRQAPGQGLEWIGRIDPANGNTKFDPKFQGRATITADTSTSTAYMELSSLRSEDTAVYYCARGVFGFFDYWGQGTTVTVSS VL: DIQMTQSPSSLSASVGDRVTITCKATEDIYNRLAWYQQKPGKAPKLLISGATSLETGVPSRFSGSGSGKDYTLTISSLQPEDFATYYCQQFWSAPYTFGGGTKVEIKR | ~0.3 µg/mL | binds | ~0.02 µg/mL | no binding | – | – | – | – | – | – | – | – |
| humanized 11K2 H2-L1 (antibody, human IgG1, kappa, V domains shown, human IgG1 kappa) VH: QVQLVQSGAEVKKPGSSVKVSCKASGLTISDTYMHWVRQAPGQGLEWMGRIDPANGNTKFDPKFQGRVTITADTSTSTAYMELSSLRSEDTAVYYCARGVFGFFDYWGQGTTVTVSS VL: DIQMTQSPSSLSASVGDRVTITCKATEDIYNRLAWYQQKPGKAPKLLISGATSLETGVPSRFSGSGSGKDYTLTISSLQPEDFATYYCQQFWSAPYTFGGGTKVEIKR | ~0.2 µg/mL | binds | ~0.02 µg/mL | no binding | – | – | – | – | – | – | – | – |
| mouse monoclonal antibody 11K2 (antibody, V domains shown, mouse IgG1; also called 11K2.1; mu11K2) VH: EVQLQQSGAELVKAGASVKLSCPASGLNIKDTYMHWVKQRPEQGLEWIGRIDPANGNTKFDPKFQGKATITADTSSNTAYLQLSSLTSEDTAVYYCARGVFGFFDYWGQGTTLTVSS VL: DIQMTQSSSSFSVSLGDRVTITCKATEDIYNRLAWYQQKPGSAPRLLISGATSLETGVPSRFSGSGSGKDYTLSITSLQTEDVATYYCQQFWSAPYTFGGGTKLEIK | – | – | – | – | < 0.0004 nM | no binding (tested: 10 µg/ml) | no binding (tested: 10 µg/ml) | no binding (tested: 10 µg/ml) | no binding | no binding | no binding | Kd (human MCP-2 [4]): 0.018 nM |

Now from value to binder, other results behind:

| EC50 (read off the curve) (human MCP-2 [1]) | binding result (murine MCP-1 (JE)) | EC50 (read off the curve) (human MCP-1 [2]) | binding result (human MCP-3) | Kd (human MCP-1 [3]) | binding result (human eotaxin) | binding result (human MCP-4) | binding result (human IL-8) | binding result (human fractalkine) | binding result (human Gcp-2) | binding result (human DC-CK) | Binder | other results |
| --- | --- | --- | --- | --- | --- | --- | --- | --- | --- | --- | --- | --- |
| – | – | ~0.02 µg/mL | – | – | – | – | – | – | – | – | chimeric 11K2 antibody (antibody, human IgG1, kappa, V domains shown, murine 11K2 variable domains with human IgG1 and kappa constant regions; also called Chimera; ch11K2) VH: EVQLQQSGAELVKAGASVKLSCPASGLNIKDTYMHWVKQRPEQGLEWIGRIDPANGNTKFDPKFQGKATITADTSSNTAYLQLSSLTSEDTAVYYCARGVFGFFDYWGQGTTLTVSS VL: DIQMTQSSSSFSVSLGDRVTITCKATEDIYNRLAWYQQKPGSAPRLLISGATSLETGVPSRFSGSGSGKDYTLSITSLQTEDVATYYCQQFWSAPYTFGGGTKLEIKR | EC50 (read off the curve) (murine MCP-1 (JE)): ~0.02 µg/mL |
| – | – | – | – | < 0.0007 nM | no binding (tested: 10 µg/ml) | no binding (tested: 10 µg/ml) | no binding (tested: 10 µg/ml) | no binding | no binding | no binding | mouse monoclonal antibody 1A1 (antibody, V domains shown, mouse IgG1; also called 1A1.1; mu1A1) VH: EVQLQQSGAELVRSGASVKLSCTASGFNIKDNYMHWVKQRPEQGLEWIGWIDPENGDTEYAPKFQGKATMTADTSSNTAYLQLSSLTSEDTAVYYCNTWAYYGTSYGGFAYWGQGTTVTVSS VL: not shown | Kd (human MCP-2 [5]): 0.0012 nM |
| – | – | – | – | 0.013 nM | – | – | – | – | – | – | Fab fragment of murine 1A1 (Fab, V domains shown, also called 1A1 Fab) VH: EVQLQQSGAELVRSGASVKLSCTASGFNIKDNYMHWVKQRPEQGLEWIGWIDPENGDTEYAPKFQGKATMTADTSSNTAYLQLSSLTSEDTAVYYCNTWAYYGTSYGGFAYWGQGTTVTVSS VL: not shown | Kd (human MCP-1 [6]): 0.0129 nM; Kd (human MCP-2 [7]): 0.32 nM; Kd (human MCP-2 [8]): 0.32 nM |
